According to patent publication US20210115127A1 (SURFACE ONCOLOGY, published 2021):
Values belong to the binder of their own block, whether it stands above or below them.

B1: recombinant human IL-27 (heterodimer of IL-27p28 and EBI3) (ligand)
chain 1: FPRPPGRPQLSLQELRREFTVSLHLARKLLSEVRGQAHRFAESHLPGVNLYLLPLGEQLPDVSLTFQAWRRLSDPERLCFISTTLQPFHALLGGLGTQGRWTNMERMQLWAMRLDLRDLQRHLRFQVLAAGFNLPEEEEEEEEEEEEERKGLLPGALGSALQGPAQVSWPQLLSTYRLLHSLELVLSRAVRELLLLSKAGHSVWPLGFPTLSPQP
chain 2: RKGPPAALTLPRVQCRASRYPIAVDCSWTLPPAPNSTSPVSFIATYRLGMAARGHSWPCLQQTPTSTSCTITDVQLFSMAPYVLNVTAVHPWGSSSSFVPFITEHIIKPDPPEGVRLSPLAERQLQVQWEPPGSWPFPEIFSLKYWIRYKRQGAARFHRVGPIEATSFILRAVRPRARYYVQVAAQDLTDYGELSDWSLPATATMSLGK
notes: Bought recombinant protein (R&D Systems 2526-IL) in the cell and ForteBio assays; also called rhIL-27
B2: human IL-27p28 subunit (ligand)
chain: FPRPPGRPQLSLQELRREFTVSLHLARKLLSEVRGQAHRFAESHLPGVNLYLLPLGEQLPDVSLTFQAWRRLSDPERLCFISTTLQPFHALLGGLGTQGRWTNMERMQLWAMRLDLRDLQRHLRFQVLAAGFNLPEEEEEEEEEEEEERKGLLPGALGSALQGPAQVSWPQLLSTYRLLHSLELVLSRAVRELLLLSKAGHSVWPLGFPTLSPQP

How the values were obtained:
[1] = target: T1, gp130 (human, UniProt P40189 23-619, limits assumed); assay: SPR on gp130; trace (2), rhIL-27 alone, and trace (1), rhIL-27 + Anti-IL-27 Ab1, both rise to about 45 RU
T1 construct: also called IL6ST; Interleukin-6 Signal Transducer
T1 sequence: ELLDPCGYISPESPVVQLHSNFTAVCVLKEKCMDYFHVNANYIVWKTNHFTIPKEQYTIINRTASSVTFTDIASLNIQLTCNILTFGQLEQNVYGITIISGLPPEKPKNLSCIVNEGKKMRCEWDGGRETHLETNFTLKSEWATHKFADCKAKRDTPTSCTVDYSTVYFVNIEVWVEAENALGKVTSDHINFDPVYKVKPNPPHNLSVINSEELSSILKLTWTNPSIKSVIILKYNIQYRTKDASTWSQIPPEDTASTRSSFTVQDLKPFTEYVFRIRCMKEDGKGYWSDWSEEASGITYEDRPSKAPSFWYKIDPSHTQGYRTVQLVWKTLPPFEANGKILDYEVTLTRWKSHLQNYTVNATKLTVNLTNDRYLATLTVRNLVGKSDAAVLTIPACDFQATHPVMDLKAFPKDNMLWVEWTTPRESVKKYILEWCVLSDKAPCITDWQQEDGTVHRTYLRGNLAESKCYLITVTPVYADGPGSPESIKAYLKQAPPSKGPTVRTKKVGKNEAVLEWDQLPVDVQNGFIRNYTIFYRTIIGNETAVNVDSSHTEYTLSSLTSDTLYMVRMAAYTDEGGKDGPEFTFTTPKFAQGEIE

[2] = target: T2, IL-27RA (WSX-1) (human, UniProt Q6UWB1 33-516, limits assumed); assay: SPR on WSX-1; trace (2), rhIL-27 alone, rises to about 210 RU; trace (1), rhIL-27 + Anti-IL-27 Ab1, stays at or below 0 RU
T2 construct: also called IL-27Rα; IL-27 receptor subunit alpha
T2 sequence: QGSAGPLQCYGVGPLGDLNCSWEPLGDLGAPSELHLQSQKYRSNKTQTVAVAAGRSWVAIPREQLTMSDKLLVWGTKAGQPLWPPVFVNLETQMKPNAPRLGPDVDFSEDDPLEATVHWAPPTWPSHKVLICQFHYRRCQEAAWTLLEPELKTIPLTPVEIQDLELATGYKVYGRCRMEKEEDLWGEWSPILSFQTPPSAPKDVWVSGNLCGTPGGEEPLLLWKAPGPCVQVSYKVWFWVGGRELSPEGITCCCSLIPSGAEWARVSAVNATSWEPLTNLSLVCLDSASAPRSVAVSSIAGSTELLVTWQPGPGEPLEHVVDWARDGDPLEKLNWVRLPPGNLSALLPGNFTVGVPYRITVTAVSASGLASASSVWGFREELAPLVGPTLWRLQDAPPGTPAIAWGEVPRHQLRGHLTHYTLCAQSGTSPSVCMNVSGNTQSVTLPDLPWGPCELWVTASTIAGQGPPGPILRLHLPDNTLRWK

[3] = target: T1, gp130; assay: Drawn table Ligand / Analyte / Result, ligand gp130, analyte IL-27 heterodimer; method not named for this figure (SPR is used in the same example)
[4] = target: T1, gp130; assay: Drawn table Ligand / Analyte / Result, ligand gp130, analyte p28 alone; method not named for this figure (SPR is used in the same example)
[5] = target: B2; assay: binding affinity data of FIG. 17; method not stated
[6] = target: T2, IL-27RA (WSX-1); assay: Drawn table Ligand / Analyte / Result, ligand WSX-1, analyte EBI3 alone; method not named for this figure (SPR is used in the same example)
[7] = target: B2; assay: Drawn table Ligand / Analyte / Result, ligand p28 held by Anti-IL-27 Ab3 (anti-p28), analyte EBI3; method not named for this figure (SPR is used in the same example)
[8] = target: B1; assay: cell-based or functional assay
[9] = target: B1; assay: cell-based or functional assay; remark: listed apart in the source
[10] = target: T3, recombinant cynomolgus monkey IL-27 (cynomolgus monkey, UniProt A0A2K5UBM6 29-244; A0A2K5WPB7 36-244); assay: cell-based or functional assay
T3 sequence (alpha): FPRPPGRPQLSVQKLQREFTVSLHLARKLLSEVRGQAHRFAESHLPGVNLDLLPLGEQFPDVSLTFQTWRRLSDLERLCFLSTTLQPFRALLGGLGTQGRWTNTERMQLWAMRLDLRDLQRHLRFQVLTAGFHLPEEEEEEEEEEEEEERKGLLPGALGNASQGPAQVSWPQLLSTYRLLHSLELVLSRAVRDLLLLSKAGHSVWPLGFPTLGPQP
T3 sequence (beta): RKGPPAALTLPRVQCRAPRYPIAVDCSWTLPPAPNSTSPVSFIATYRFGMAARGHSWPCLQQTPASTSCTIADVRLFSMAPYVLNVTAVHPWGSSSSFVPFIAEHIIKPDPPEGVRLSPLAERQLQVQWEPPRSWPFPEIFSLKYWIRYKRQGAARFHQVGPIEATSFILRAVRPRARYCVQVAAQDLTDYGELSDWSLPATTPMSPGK

[11] = target: T4, recombinant rat IL-27 (rat, UniProt D3ZPW3 29-234; M0RD76 19-228); assay: cell-based or functional assay
T4 sequence (alpha): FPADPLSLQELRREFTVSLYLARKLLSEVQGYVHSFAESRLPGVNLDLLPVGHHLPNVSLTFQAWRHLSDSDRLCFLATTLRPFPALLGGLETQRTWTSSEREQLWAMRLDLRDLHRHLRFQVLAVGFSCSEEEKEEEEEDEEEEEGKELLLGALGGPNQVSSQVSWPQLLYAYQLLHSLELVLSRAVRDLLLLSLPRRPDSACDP
T4 sequence (beta): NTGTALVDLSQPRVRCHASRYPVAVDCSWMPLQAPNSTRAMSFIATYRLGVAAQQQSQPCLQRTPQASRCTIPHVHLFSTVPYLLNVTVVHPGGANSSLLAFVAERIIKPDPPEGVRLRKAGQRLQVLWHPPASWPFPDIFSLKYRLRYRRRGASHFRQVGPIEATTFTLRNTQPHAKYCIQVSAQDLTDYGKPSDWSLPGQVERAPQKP

[12] = target: T5, recombinant mouse IL-27 (mouse, UniProt Q8K3I6 29-234; O35228 19-228); assay: cell-based or functional assay
T5 sequence (looked up) 1: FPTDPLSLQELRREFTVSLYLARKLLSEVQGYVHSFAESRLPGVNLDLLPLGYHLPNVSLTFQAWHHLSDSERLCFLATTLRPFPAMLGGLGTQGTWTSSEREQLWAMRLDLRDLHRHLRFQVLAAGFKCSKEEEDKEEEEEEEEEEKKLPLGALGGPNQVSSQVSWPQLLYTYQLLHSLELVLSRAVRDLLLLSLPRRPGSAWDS
T5 sequence (looked up) 2: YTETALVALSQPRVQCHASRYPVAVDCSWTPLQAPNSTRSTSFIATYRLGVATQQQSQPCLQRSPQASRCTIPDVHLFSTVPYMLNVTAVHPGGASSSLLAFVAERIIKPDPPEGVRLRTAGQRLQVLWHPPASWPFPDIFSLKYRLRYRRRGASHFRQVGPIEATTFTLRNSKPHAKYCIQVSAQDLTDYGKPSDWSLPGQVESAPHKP

Binder: B1
- Kd [1]: 4.1 nM
- Kd [2]: 0.0206 nM
- Kd [3]: 34 nM

Binder: B2
- Kd [4]: ~1000 nM

- Kd [5]: 5 nM
- Kd [6]: 3.81 nM
- Kd [7]: 5.07 nM
B3: human EBI3 subunit (ligand)
chain: RKGPPAALTLPRVQCRASRYPIAVDCSWTLPPAPNSTSPVSFIATYRLGMAARGHSWPCLQQTPTSTSCTITDVQLFSMAPYVLNVTAVHPWGSSSSFVPFITEHIIKPDPPEGVRLSPLAERQLQVQWEPPGSWPFPEIFSLKYWIRYKRQGAARFHRVGPIEATSFILRAVRPRARYYVQVAAQDLTDYGELSDWSLPATATMSLGK

- IC50, inhibition of phosphorylation of STAT1 in HUT-78 cells (flow cytometry) [8]: 0.08 µg/mL
- IC50, inhibition of phosphorylation of STAT1 in U937 cells (flow cytometry) [8]: 0.081 µg/mL
- IC50, inhibition of phosphorylation of STAT1 in pooled human PBMCs (flow cytometry) [8]: 0.141 µg/mL
B4: anti-IL-27 Ab3 (antibody, V domains shown)
VH: EVQLVESGGGLVKPGGSLRLSCAASGFTFRSYGMNWVRQAPGKGLEWVSSISSSSSYIYYADSVKGRFTISRDNAKNSLYLQMNSLRAEDTAVYYCARDGGRTSYTATAHNWFDPWGQGTLVTVSS
VL: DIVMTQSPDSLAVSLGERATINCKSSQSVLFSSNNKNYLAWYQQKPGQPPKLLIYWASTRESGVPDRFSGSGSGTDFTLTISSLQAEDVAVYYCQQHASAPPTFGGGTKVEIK

- IC50, inhibition of phosphorylation of STAT1 in HUT-78 cells (flow cytometry) [8]: 0.095 µg/mL
- IC50, inhibition of phosphorylation of STAT1 in U937 cells (flow cytometry) [8]: 0.096 µg/mL
- IC50, inhibition of phosphorylation of STAT1 in pooled human PBMCs (flow cytometry) [8]: 0.0583 µg/mL
- Average IC50, ng/mL; IL-27 pSTAT1 signaling inhibition in peripheral blood T cells, human [9]: 78.4 ng/mL
- Average IC50, ng/mL; IL-27 pSTAT1 signaling inhibition in peripheral blood T cells, cynomolgus monkey [10]: 118 ng/mL
- Average IC50, ng/mL; IL-27 pSTAT1 signaling inhibition in peripheral blood T cells, rat [11]: 273 ng/mL
- Average IC50, ng/mL; IL-27 pSTAT1 signaling inhibition in peripheral blood T cells, mouse [12]: 1720 ng/mL
B5: anti-IL-27 Ab1 (antibody, V domains shown)
VH: EVQLVESGGGLVKPGGSLRLSCAASGFTFRSYGMNWVRQAPGKGLEWVSGISSSGSYIYYADSVKGRFTISRDNAKNSLYLQMNSLRAEDTAVYYCARDGGRTSYTATAHNWFDPWGQGTLVTVSS
VL: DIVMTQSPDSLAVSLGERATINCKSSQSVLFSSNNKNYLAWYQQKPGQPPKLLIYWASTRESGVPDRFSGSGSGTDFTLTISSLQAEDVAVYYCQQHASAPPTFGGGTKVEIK
